Data reported in publication PMC4833811.

Experiments:
14-3-3ε:ζ heterodimer = 14-3-3ε:ζ heterodimer (UniProt P62258)
GST-14-3-3γ:γ homodimer = target: T1, GST-14-3-3γ:γ homodimer (UniProt P61981)
T1 sequence: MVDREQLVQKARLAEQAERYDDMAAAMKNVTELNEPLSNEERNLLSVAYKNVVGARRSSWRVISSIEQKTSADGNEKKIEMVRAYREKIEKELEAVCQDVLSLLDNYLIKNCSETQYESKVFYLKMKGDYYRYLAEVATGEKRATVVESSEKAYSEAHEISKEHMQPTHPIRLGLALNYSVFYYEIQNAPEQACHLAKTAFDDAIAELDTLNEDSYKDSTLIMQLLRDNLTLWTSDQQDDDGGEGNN

UniProt P62258, sequence (P62258 whole entry, chain 1 of 2): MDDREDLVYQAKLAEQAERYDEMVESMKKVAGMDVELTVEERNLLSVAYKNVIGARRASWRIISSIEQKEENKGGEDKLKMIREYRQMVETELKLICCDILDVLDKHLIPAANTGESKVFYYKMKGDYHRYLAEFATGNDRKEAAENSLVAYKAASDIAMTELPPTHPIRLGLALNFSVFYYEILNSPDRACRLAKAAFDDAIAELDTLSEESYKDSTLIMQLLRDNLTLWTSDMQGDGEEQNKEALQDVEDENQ
UniProt P62258, sequence (P62258 other isoform, or with tags, fused parts or gaps, chain 2 of 2): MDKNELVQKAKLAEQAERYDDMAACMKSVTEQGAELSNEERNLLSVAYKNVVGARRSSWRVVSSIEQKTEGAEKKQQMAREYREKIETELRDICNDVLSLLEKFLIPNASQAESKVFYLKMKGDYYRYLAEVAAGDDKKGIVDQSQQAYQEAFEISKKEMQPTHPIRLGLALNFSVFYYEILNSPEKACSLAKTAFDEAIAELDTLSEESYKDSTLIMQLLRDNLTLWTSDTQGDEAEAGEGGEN

relative activation of bTH-pS19 activity (maximal, 12.5–100 µg/ml thrombin-cleaved 14-3-3, BH4 as cofactor); lowest activation (14-3-3ε:ζ heterodimer): 3.3 fold
relative activation of bTH-pS19 activity (maximal, 12.5–100 µg/ml thrombin-cleaved 14-3-3, BH4 as cofactor); highest activation (GST-14-3-3γ:γ homodimer): 4.4 fold
Substance: bovine tyrosine hydroxylase phosphorylated by PRAK on Ser19 (from UniProt P17289 1-491) (enzyme)
